Source: publication PMC2681181
Blank lines part the entries; values can stand above or below the substance they belong to.

Biological target: Integrin β1 (human (endogenous in MCF-7 and MCF-10A)) (UniProt P05556)
Experiment: co-IP

UniProt P05556, sequence (P05556 21-798): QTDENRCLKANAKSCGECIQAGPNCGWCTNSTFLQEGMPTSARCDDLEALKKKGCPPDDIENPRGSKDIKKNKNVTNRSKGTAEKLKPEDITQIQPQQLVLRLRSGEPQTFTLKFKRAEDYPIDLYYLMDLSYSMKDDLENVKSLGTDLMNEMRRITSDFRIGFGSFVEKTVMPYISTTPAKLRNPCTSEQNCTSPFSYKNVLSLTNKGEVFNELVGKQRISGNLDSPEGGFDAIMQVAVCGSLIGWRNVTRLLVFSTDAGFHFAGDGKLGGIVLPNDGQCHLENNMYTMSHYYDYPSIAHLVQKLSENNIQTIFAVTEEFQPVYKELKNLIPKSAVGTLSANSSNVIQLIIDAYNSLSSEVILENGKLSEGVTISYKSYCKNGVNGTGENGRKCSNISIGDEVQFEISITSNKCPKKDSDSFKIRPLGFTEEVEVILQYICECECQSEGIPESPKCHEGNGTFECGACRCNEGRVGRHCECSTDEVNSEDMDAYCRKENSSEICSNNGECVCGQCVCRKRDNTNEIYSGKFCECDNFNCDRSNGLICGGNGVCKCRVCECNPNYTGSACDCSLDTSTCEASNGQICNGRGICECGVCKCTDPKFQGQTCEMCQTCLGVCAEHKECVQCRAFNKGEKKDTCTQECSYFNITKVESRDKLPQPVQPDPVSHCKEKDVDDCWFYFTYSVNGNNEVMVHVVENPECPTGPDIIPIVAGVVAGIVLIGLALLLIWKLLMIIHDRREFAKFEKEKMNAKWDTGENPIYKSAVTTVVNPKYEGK

- percent increase of co-precipitated INTα2 after combined CII/LAM treatment: 53.8%
Substance: Integrin α2 (from UniProt P17301 30-1181) (receptor)

- percent decrease of co-precipitated LAM in the combined CII/LAM treatment: 27.8%
Substance: laminin (from UniProt P02469 22-1786) (complex)

- percent decrease of co-precipitated CII in the combined CII/LAM treatment: 27.1%
Substance: type II collagen (from UniProt P02459 182-1241) (ligand)
